# Laboratory results as given in patent US20030167129A1 (published 2003).
# Where no end group is shown, it is not given here. [ ]: non-standard residue; d: D form. 1Nal = N[C@@H](Cc1cccc2ccccc12)C(=O)O; 2Nal = N[C@@H](Cc1ccc2ccccc2c1)C(=O)O; Tic = O=C(O)[C@@H]1Cc2ccccc2CN1; Aib = CC(C)(N)C(=O)O
# B1: CPI-1221 (peptide)
# peptide: MARSLIWRPAKAKKK
# notes: Original 15-mer consensus peptide; also called M-A-R-S-L-I-W-R-P-A-K-A-K-K-K
# B2: CPI-1500 (peptide)
# peptide: ARSLI[2Nal]R[Tic]ARR[2Nal]RR-NH2
# modifications: N-terminus assumed
# SMILES: CC[C@H](C)[C@H](NC(=O)[C@H](CC(C)C)NC(=O)[C@H](CO)NC(=O)[C@H](CCCNC(=N)N)NC(=O)[C@H](C)N)C(=O)N[C@@H](Cc1ccc2ccccc2c1)C(=O)N[C@@H](CCCNC(=N)N)C(=O)N1Cc2ccccc2C[C@H]1C(=O)N[C@@H](C)C(=O)N[C@@H](CCCNC(=N)N)C(=O)N[C@@H](CCCNC(=N)N)C(=O)N[C@@H](Cc1ccc2ccccc2c1)C(=O)N[C@@H](CCCNC(=N)N)C(=O)N[C@@H](CCCNC(=N)N)C(N)=O
# B3: CPI-1456 (peptide)
# peptide: RRARSLI[2Nal]RAARR[2Nal]RR
# notes: also called RRARSLI(2-Nal)RAARR(2-Nal)RR
# B4: CPI-1366 (peptide)
# peptide: Ac-ARSLI[2Nal]RAARR[2Nal]RR
# notes: also called Ac-ARSLI(2-Nal)RAARR(2-Nal)RR
# B5: CXCR4-GST (receptor, human, UniProt P61073 1-352, looked up)
# chain: MEGISIYTSDNYTEEMGSGDYDSMKEPCFREENANFNKIFLPTIYSIIFLTGIVGNGLVILVMGYQKKLRSMTDKYRLHLSVADLLFVITLPFWAVDAVANWYFGNFLCKAVHVIYTVNLYSSVLILAFISLDRYLAIVHATNSQRPRKLLAEKVVYVGVWIPALLLTIPDFIFANVSEADDRYICDRFYPNDLWVVVFQFQHIMVGLILPGIVILSCYCIIISKLSHSKGHQKRKALKTTVILILAFFACWLPYYIGISIDSFILLEIIKQGCEFENTVHKWISITEALAFFHCCLNPILYAFLGAKFKTSAQHALTSVSRGSSLKILSKGKRGGHSSVSTESESSSFHSS
# notes: whole, on cells; Full-length receptor expressed by baculovirus in High Five or Sf9 insect cells; assayed as membrane preparations or solubilized and immobilized on glutathione resin; also called GST-CXCR4 (High Five); CXCR4 with C-terminal GST tag; not shown: C-terminal GST tag
# Molecular target: T1, CXCR4 (CXC chemokine receptor 4), tagged construct not stated (human, UniProt P61073 1-352)
# T1 construct: whole, on cells; Receptor of the radioligand displacement assays of the peptides; in insect cell membranes; also called the receptor; CXCR4-containing membranes
# Test: radioligand displacement of [125I]-SDF-1 from CXCR4
row,Binder,IC50 [µM]
1,B1,~60

# Molecular target: T1, CXCR4 (CXC chemokine receptor 4), …
# Test: binding inhibition curves, [125I]-SDF1α displacement
row,Binder,binding result
1,ARSLI[2Nal]RAARR[2Nal]RR (also called ARSLI(2-Nal)RAARR(2-Nal)RR) [CPI-1365],binds

# Molecular target: CXCR4 as HIV co-receptor in the HIV infectivity assay (HELA / Magi cells) (UniProt P61073 1-352, limits assumed)
# Test: cell-based or functional assay
row,Binder,"inhibition of HIV IIIb infection, EC50 [nM]"
1,B2,280

# Molecular target: T1, CXCR4 (CXC chemokine receptor 4), …
# Test: inhibition of [125I]-SDF1α binding to CXCR4
row,Binder,binding result
1,ARSLIWRPARRRRR [CPI-1297],binds
2,FARSLI[2Nal]EAARR[2Nal]RR (also called FARSLI(2-Nal)EAARR(2-Nal)RR) [CPI-1389],binds
3,ARSLI[2Nal]R[Tic]ARR[2Nal]RR [CPI-1458],binds
4,FARSLI[2Nal]AARR[2Nal]RR [CPI-1390],binds
5,MARSLAWRPAKAKKK [CPI-1308],binds
6,MARSTIWRPAKAKKK [CPI-1298],binds
7,MARSLIWRPAKAAKK [CPI-1301],binds
8,MARSLIWRAAKAKKK [CPI-1295],binds
9,MAASLIWRPAKAKKK [CPI-1329],binds
10,MARSLIWRPAKAKAK [CPI-1310],binds
11,MARSLIARPAKAKKK [CPI-1304],binds
12,MAASLIWRPAKAKKK [SEQ ID NO 12 (Table 1 row without a CPI number)],binds
13,MARSAIWRPAKAKKK [CPI-1307],binds
14,MARSLIWRPAKAKKA [CPI-1312],binds
15,MARSLIWRPAAAKKK [CPI-1306],binds
16,MARALIWRPAKAKKK [CPI-1328],binds
17,MARSFIWRPAKAKKK [CPI-1296],binds
18,MARSLIWAPAKAKKK [CPI-1305],binds
19,MARSLIWGPAKAKKK [CPI-1334],binds
20,MARSLI[1Nal]RPAKAKKK [CPI-1291],binds
21,KKKARSLIWRPAKAKKK [CPI-1331],binds
22,RSLIWRPAK [CPI-1250],binds

row,Binder,binding result
1,MARSLIWRPAREWRR [CPI-1377],binds
2,MARSLIWRPAKKK [CPI-1249],binds
3,ARSLIWRLARRWRR [CPI-1425],binds
4,MARSLIWRP[Aib]KAKKK [CPI-1303],binds
5,MAESLIWRPARRWRR [CPI-1374],binds
6,B3,binds
7,MARSLIWRPAERWRR [CPI-1373],binds
8,FARSLIERAARRWRR [CPI-1330],binds
9,B4,binds
10,ARSLI[2Nal]RPARR[2Nal]RR (also called ARSLI(2-Nal)RPARR(2-Nal)RR) [CPI-1701],binds
11,ARSLI[2Nal]RHARR[2Nal]RR (also called ARSLI(2-Nal)RHARR(2-Nal)RR) [CPI-1443],binds
12,ARSLIWRPAKAKKK [CPI-1292],binds
13,MARSLI[2Nal]RPAKAKKK [CPI-1309],binds
14,MARSLIWEPARRWRR [CPI-1372],binds
15,FHEFRSLIWRPAKAKKK [CPI-1300],binds
16,YHEFRSLIWRPAKAKKK [CPI-1299],binds
17,ARSIWRLARRWRR [CPI-1382],binds
18,RSLIWRPAKAKKK [CPI-1247],binds
19,ISLIWRPAKAKKK [CPI-1248],binds
20,MARSLIWRPAKARRR [CPI-1289],binds
21,MARSLIWR[Tic]AKAKKK [CPI-1302],binds
22,MARSLIWRPARRRRR [CPI-1332],binds

# Molecular target: T2, SDF-1α (UniProt P48061-2 22-89, 125I label on the radioligand form)
# T2 construct: Labelled and unlabelled forms are kept as one molecule
# T2 sequence (P48061 22-89 limits assumed): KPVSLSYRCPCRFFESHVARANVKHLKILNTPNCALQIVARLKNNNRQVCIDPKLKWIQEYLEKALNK
# Test: radioligand saturation binding, [125I]-SDF-1α on membrane preparations of GST-CXCR4 (High Five)
# Description: Whole cells from Sf9 and High five cell lines were lysed using hypotonic buffers (10 mM Tris, pH 7.4, 5 mM EDTA), and membrane preparations were made by homogenization and centrifugation using standard techniques known to those skilled in the art. […] For filtration and washing, the reaction was transferred to Millipore Multiscreen filter plates (HATF 0.45 μm; pre-blocked with 10% BSA) (Bedford, Mass.), filtered using vacuum, washed 4-5 times with 200 μL ice-cold buffer, and radioactive counts bound were detected using scintillation counting. All points were done in triplicate. Uninfected cells were used as a control for this experiment. […] Analyses of KD and IC₅₀ were performed using non-linear curve fitting in Kaleidagraph (software program sold by Synergy Software, Reading, Pa.).
row,Binder,Kd [nM]
1,B5,3.27
